Source: PMC11509546, “The Antioxidant Effects of Trypsin-Hydrolysate Derived from Abalone Viscera and Fishery By-Products, and the Angiotensin-I Converting Enzyme (ACE) Inhibitory Activity of Its Purified Bioactive Peptides” (Marine Drugs, 2024)
Where a SMILES comes first, the peptide text is derived from it.

The molecules below were run against T1, Angiotensin-I converting enzyme (ACE) (Homo sapiens, UniProt P12821) (assay: ACE inhibition activity assay (ACE kit-WST, colorimetric)). Details: 3-hydroxybutyryl-Gly-Gly-Gly substrate, mean ± SD of triplicate, read-out: ACE Inhibitory Activity IC50 Value (converted).
T1 construct: purchased Dojindo Inc., Kumamoto, Japan ACE kit-WST
T1 sequence (P12821 30-1306, species assumed): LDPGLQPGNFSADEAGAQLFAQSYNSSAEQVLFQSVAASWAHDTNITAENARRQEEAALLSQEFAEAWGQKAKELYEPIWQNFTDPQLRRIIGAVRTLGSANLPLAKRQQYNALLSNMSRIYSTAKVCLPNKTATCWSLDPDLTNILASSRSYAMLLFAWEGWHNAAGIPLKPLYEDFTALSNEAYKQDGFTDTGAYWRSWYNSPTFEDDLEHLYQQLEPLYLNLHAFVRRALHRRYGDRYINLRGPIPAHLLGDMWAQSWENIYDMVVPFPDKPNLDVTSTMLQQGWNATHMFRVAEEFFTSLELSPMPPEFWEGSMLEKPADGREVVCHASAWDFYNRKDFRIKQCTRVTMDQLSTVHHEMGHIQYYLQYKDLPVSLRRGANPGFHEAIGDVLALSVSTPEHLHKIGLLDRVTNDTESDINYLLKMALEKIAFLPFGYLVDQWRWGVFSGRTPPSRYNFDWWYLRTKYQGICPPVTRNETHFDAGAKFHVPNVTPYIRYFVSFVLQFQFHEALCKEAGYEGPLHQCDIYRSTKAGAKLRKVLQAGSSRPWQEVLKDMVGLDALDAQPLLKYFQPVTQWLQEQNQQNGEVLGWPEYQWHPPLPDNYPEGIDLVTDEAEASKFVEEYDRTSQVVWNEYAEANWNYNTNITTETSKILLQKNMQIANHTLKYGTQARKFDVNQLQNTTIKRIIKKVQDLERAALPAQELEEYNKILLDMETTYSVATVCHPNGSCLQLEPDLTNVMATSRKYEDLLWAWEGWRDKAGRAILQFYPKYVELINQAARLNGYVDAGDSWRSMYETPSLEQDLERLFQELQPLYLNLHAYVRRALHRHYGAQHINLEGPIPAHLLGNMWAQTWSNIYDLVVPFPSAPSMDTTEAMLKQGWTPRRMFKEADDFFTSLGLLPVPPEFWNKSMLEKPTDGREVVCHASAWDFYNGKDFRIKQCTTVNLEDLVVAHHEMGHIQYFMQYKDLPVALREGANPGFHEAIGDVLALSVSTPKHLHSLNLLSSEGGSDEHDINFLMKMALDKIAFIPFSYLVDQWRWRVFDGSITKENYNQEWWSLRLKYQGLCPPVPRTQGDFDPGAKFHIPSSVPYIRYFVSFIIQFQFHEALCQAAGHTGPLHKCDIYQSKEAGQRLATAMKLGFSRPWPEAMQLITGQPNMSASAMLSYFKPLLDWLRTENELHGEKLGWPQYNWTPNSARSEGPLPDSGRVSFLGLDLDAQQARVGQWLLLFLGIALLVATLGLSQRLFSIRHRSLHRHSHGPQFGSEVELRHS
Assay type: biochemical
Procedure: ACE inhibitory activity was determined as previously described. Inhibition was measured using an ACE kit-WST (Dojindo Inc., Kumamoto, Japan), a colorimetric method. Briefly, the inhibitory effect was determined using enzyme activity and the amount of 3-hydroxybutyric acid made from 3-hydroxybutyryl-Gly-Gly-Gly.

Row | IC50 [µM] | Molecule
1 | 328 | CC(C)C[C@H](N)C(=O)NCC(=O)N[C@@H](CCC(=O)O)C(=O)N[C@@H](Cc1c[nH]c2ccccc12)C(=O)O [LGEW] (H-LGEW-OH)
2 | 184 | N=C(N)NCCC[C@H](NC(=O)[C@H](CCC(=O)O)NC(=O)[C@H](Cc1ccc(O)cc1)NC(=O)[C@@H](N)CC(N)=O)C(=O)O [NYER] (H-NYER-OH)
3 | 4.24 | CC(C)C[C@H](NC(=O)[C@@H](N)CCC(N)=O)C(=O)N[C@@H](CCC(N)=O)C(=O)N[C@@H](Cc1ccccc1)C(=O)N1CCC[C@H]1C(=O)N[C@H](C(=O)NCC(=O)N[C@@H](CCCNC(=N)N)C(=O)O)C(C)C [QLQFPVGR] (H-QLQFPVGR-OH)
4 | > 2310 | CC(C)C[C@H](N)C(=O)N[C@@H](CC(=O)O)C(=O)N[C@@H](Cc1c[nH]c2ccccc12)C(=O)O [LDW] (H-Leu-Asp-Trp-OH)
5 | 302 | CC(C)[C@H](N)C(=O)N[C@@H](C)C(=O)N[C@@H](CCCNC(=N)N)C(=O)O [VAR] (H-Val-Ala-Arg-OH)
6 | 236 | CC(C)C[C@H](NC(=O)[C@@H](N)CC(N)=O)C(=O)NCC(=O)N[C@@H](CCC(=O)O)C(=O)N[C@@H](Cc1c[nH]c2ccccc12)C(=O)O [NLGEW] (H-NLGEW-OH)
7 | > 2230 | CC(C)C[C@H](N)C(=O)NCC(=O)N1CCC[C@H]1C(=O)N[C@@H](Cc1ccc(O)cc1)C(=O)O [LGPY] (H-LGPY-OH)
8 | 29.6 | CC(C)C[C@H](NC(=O)CNC(=O)[C@@H]1CCCN1C(=O)[C@@H](NC(=O)[C@@H](N)C(C)C)[C@@H](C)O)C(=O)N[C@@H](CCC(N)=O)C(=O)N[C@@H](Cc1ccc(O)cc1)C(=O)O [VTPGLQY] (H-VTPGLQY-OH)

The molecules below were run against Angiotensin-I converting enzyme (UniProt P12821) (assay: not given). Details: not given.
Sequence of Angiotensin-I converting enzyme (P12821 30-1256): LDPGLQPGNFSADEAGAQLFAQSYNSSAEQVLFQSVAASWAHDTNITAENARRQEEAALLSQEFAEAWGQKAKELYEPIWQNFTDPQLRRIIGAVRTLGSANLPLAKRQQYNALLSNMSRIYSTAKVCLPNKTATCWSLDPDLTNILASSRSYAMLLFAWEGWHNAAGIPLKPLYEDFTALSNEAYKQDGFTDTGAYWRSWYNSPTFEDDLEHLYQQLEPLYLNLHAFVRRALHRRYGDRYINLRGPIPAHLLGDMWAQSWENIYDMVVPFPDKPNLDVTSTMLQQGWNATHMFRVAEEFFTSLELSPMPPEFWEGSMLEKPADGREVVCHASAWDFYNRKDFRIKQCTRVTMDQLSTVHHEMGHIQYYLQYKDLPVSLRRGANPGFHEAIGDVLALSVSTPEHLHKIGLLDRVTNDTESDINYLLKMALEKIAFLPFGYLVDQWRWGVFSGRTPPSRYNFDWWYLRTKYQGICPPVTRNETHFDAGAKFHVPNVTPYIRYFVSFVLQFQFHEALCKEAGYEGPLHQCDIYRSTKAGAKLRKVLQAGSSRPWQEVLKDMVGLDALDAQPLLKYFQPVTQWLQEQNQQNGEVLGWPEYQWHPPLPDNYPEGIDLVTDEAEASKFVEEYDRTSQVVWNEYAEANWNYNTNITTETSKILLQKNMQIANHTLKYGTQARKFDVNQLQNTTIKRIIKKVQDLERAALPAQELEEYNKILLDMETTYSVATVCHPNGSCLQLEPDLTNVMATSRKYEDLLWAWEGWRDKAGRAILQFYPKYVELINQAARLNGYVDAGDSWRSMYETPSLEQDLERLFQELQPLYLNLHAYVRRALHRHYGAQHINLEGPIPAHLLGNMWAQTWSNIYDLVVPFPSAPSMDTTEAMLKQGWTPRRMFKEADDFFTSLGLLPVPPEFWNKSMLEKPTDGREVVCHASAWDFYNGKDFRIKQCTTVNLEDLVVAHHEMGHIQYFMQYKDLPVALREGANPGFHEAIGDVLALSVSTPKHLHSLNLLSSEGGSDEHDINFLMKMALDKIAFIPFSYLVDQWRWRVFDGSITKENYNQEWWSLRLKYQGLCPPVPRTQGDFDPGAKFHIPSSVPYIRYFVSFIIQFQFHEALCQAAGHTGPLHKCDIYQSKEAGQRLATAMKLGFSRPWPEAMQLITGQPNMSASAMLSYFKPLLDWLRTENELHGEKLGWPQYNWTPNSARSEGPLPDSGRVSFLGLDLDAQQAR

Row | ACE inhibitory activity IC50 (ACE kit-WST, colorimetric enzyme activity assay) [µg/mL] | Molecule
9 | > 1000 | LDW (peptide)
10 | 104 | VAR (peptide)
11 | 107 | NYER
12 | > 1000 | LGPY
13 | 23 | VTPGLQY
14 | 23 | QFPVGR
15 | 165 | LGEW
16 | 4 | QLQFPVGR
17 | 146 | NLGEW
